Assay results as given in PMC12171143, “The Arabidopsis E3 ubiquitin ligase PUB13 synergistically interacts with BON1 to regulate plant flowering and immunity” (Frontiers in Plant Science, 2025).

Biological target: T1, GST-PUB13 (Arabidopsis thaliana, UniProt Q9SNC6 1-660)
T1 construct: also called PUB13-GST; source: purified fusion protein from pGEX-6p-1; E. coli BL21 is named for the PUB13 construct in pGEX-6P-1 of the ubiquitination assay
T1 sequence (looked up): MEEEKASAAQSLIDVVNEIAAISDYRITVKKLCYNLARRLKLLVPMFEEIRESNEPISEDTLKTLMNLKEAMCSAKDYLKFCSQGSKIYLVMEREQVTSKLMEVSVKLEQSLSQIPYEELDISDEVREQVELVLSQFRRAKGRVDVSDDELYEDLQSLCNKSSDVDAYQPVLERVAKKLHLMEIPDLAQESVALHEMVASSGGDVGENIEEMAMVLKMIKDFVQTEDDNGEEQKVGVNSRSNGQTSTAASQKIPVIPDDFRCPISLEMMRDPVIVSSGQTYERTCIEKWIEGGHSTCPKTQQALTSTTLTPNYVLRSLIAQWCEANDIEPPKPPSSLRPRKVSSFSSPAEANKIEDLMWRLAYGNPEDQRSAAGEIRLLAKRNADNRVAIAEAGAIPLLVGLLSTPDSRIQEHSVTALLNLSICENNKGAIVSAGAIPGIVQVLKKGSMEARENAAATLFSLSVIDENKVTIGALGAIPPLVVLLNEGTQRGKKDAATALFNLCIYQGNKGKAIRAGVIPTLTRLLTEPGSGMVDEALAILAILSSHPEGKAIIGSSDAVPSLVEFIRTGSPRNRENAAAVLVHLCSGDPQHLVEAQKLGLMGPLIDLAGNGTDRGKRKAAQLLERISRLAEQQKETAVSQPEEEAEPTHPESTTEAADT
Experiment: pull-down; purified fusion proteins mixed, glutathione Sepharose beads 4 h at 4°C, five washes with 1x TBST, eluate blotted with anti-MBP
Details: both partners purified

binding result: binds
B1: MBP-BON1 (natural protein, Arabidopsis thaliana, UniProt Q941L3 1-578, looked up)
chain: MGNCCSDVASGAGATAGVGGSGSSAALGATNDALDYYLKSKGFNGLFSQIELSFSASNLRDRDVLSKSDPMVVVYQKEKDATLSEVFRSEVVLNSLAPKWIKKFIVAYHFETVQTLVFRVYDVDTKFQNSREEMLKLDEQQFLGEATCALSEIITKSTRTSTLELKRKDGFAPQAQPHHGKLIIHAEESLASKISTEIVFRCSNLESKDLFSKSDPFLVVSKIVEHGTPIPVSKTEVRKNDLNPIWKPVFLSVQQVGSKDSPVIIECSDFNSNGKHSLIGKVQKSLSDLEKLHLAGQGINFSLPTGAGQNKVLKSQLFVDKFTETVHHTFLEYLASGFELNFMVAIDFTASNGNPRLPDSLHYIDPSGRLNAYQRAIMDVGEVLQFYDSDKRFPAWGFGARPIDAPVSHCFNLNGSSSYSEVDGIQGIMTSYTSALFNVSLAGPTLFGPVINAAAMIASASLAQGSRKYYVLLIITDGVITDLQETKDALVSASDLPLSILIVGVGGADFKEMEILDADKGERLESSSGRLASRDIVQFVALRDVQYGEISVVQALLAELPSQFLTYMRIRNMKPIPP
notes: source: purified fusion protein from pMAL-c4x
